# Source: patent US6143719A, “Bradykinin analogs as selective thrombin inhibitors” (The Regents of the University of Michigan, priority 1996, dated 2000)
# Ends that are not written are not given here.
# How the values were obtained:
# [1] = system: Human platelets in PRP; test: γ-thrombin-induced aggregation of human platelets in PRP in vitro; assay type: cell-based; details: 20 nM γ-thrombin
# Protocol: Platelet aggregation studies on the PRP were conducted on a 4-channel aggregometer (BioData-PAP-4, Bio Data Corp., Hatboro, Pa.). The degree of platelet aggregation was determined by measuring the increase in light transmission through a stirred suspension of PRP maintained at 37° C. Platelet aggregation was induced in the PRP sample by addition of 20 μM ADP and γ-thrombin according to the method of Harfenist et al., Thromb. Haemost. 53, 183 (1985). […] Like human platelets, rabbit platelets display a variable response to γ-thrombin. Each rabbit's platelets were evaluated before BK analog infusion for their threshold response to γ-thrombin. The rabbit platelets used in this experiment were responsive to 10 nM to 40 nM γ-thrombin. Simultaneous γ-thrombin-induced platelet aggregation studies were performed with 10, 20, and 40 nM γ-thrombin and 20 μM ADP.
# The protocol for the human platelet study was identical to that for the functional study with white rabbits described above in Section III.A, with the following differences.
# Blood samples were obtained from normal human volunteers. Platelet counts were measured with a Coulter counter, Model 2F (Coulter, Hialeah, Fla.,) and adjusted to a platelet count of 200,000 platelets/μl. Each individual's platelets at baseline were measured for their threshold response to γ-thrombin. Typical threshold levels were between 10 nM to 40 nM.
# [2] = target: T1, thrombin receptor (Homo sapiens, UniProt P25116); test: flow cytometry of thrombin receptor epitopes (SPAN12, ATAP138) on α-thrombin activated platelets; assay type: cell-based; details: peptide 1 nM (so in the source), α-thrombin 1 nM
# T1 construct: endogenous in cells; host or cells: washed platelets from fresh blood
# T1 sequence (P25116 22-425): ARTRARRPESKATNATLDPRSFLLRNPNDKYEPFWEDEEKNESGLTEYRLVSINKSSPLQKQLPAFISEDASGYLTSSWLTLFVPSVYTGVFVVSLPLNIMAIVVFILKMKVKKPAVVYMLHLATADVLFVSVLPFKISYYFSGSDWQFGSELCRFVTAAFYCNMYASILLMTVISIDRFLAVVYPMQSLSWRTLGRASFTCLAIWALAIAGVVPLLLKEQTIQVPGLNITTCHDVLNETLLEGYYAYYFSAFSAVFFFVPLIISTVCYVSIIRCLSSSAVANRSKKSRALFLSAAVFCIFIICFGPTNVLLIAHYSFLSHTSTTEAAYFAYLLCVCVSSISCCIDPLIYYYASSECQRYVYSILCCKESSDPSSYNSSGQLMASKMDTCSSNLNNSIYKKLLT
# Protocol: Flow cytometry studies were performed to determine whether BK analogs prevent α-thrombin from eliminating an epitope on the thrombin receptor which is lost following α-thrombin cleavage- of the receptor. SPAN12 is an antibody to the thrombin receptor on platelets, which is specific for such an epitope. Studies were also performed to determine the effect of BK analogs on an epitope recognized by monoclonal antibody ATAP 138. The antibody is directed to an epitope on the thrombin receptor which is preserved after α-thrombin cleaves the receptor (FIGS. 7A-7D).
# Monoclonal antibody SPAN12 was reared to the 12 amino acids, Asn-Ala-Thr-Leu-Asp-Pro-Arg-Ser-Phe-Leu-Leu-Arg (SEQ ID NO:2), that bridge the α-thrombin cleavage site on the thrombin receptor by the methods of Molinot et al., J. Biol. Chem. 270:ln Press, 1995. […]
# Mouse IgG and an antibody to the epitope CD62 were used as controls. […] The fluorescence of bound FITC-anti-IgG to platelets was monitored on an Epics-C flow cytometer (Coulter Electronics, Hialeah, Fla.). Light scatter and fluorescence channels were set at logarithmic gain. […] Green fluorescence was observed through a 525 nm band pass filter. The relative fluorescence intensity of at least 15,000 platelets was analyzed in each sample. […]
# [3] = target: α-thrombin (Homo sapiens, UniProt P00734); test: α-thrombin cleavage of thrombin receptor peptide NAT12 (HPLC); assay type: biochemical; details: peptide 1 mM
# Protocol: A further study was performed to determine whether BK analogs prevent α-thrombin from cleaving the thrombin receptor reported by Vu et al., Cell 64, 1057 (1991). A peptide, NAT12 (SEQ ID NO:2), which spans amino acids […] of the α-thrombin cleavage site on the thrombin receptor, was used to determine whether the BK analogs described herein blocked α-thrombin cleavage of the cloned receptor.
# The cleavage study was performed according to the method of Molino et al., J. Biol. Chem. 270,11168(1995),inwhichNAT12(SEQ ID NO:2) was dissolved in a solution of 0.01 M NaH2 PO4 and 0.15 M NaCl, pH 7.4. […] Following incubation, each mixture was separated by applying the mixture to a Vyadec C-18 HPLC column in 0.1% trifluoroacetic acid and eluting the mixture with a gradient from 0% to 100% of 80% MeCN and 0.1% trifluoroacetic acid. The size of the separated products were confirmed by mass spectrometry.
substance,measurement,setting,value
4-MAP: four-branch multiple antigenic peptide of BK analog SEQ ID NO:20 on a lysine-β-alanine core (RPPG; also: four-branch MAP on lysine-beta-alanine core),effect on γ-thrombin-induced aggregation tracing,[1]; 0.05 mM,abolished
SEQ ID NO:4: unrelated peptide having an amino acid content similar to BK analog SEQ ID NO:14 (FNQTQPERGDNNLTR),alteration of SPAN12 epitope by α-thrombin,[2],did not prevent
SEQ ID NO:21: non-BK analog peptide derived from domain 3 of kininogen (LNAENNA) [reference compound],protection of NAT12 / thrombin receptor from α-thrombin cleavage,[3],no protection
same,"cleavage product peak 2, share of non-treated NAT12 peak area",[3]; 8 nM α-thrombin,32%
same,"cleavage product peak 3, share of non-treated NAT12 peak area",[3]; 8 nM α-thrombin,54%
same,reduction of NAT12 peak 1 area after α-thrombin,"[3]; 8 nM α-thrombin, one hour 37° C.",86%
same,effect on γ-thrombin-induced aggregation tracing,[1]; peptide 1 mM,unable to alter
